Results: the RNAGym collection of RNA variant scans (doi:10.7554/elife.90254)

B1: LINE1-full (parent)
chain: UACGUAGGUGGUUUUCCCCUGAUAGUGCUAAGGGGGCCUGGAAGUUUGGACUGGGCAGAGCUCAACACAGCGUGGCAAAGUGGCUGUGGCUAGACUGCCUCUCUGGAUUCCUCGUCACUCAGCAGGGCAUCUCUGAGAGAAAUGCC

Variants of: B1
Experiment: self-cleavage, relative activity (ratio to wild type); higher = more cleavage; in vitro, sequencing; the parent is a self-cleaving ribozyme

Row | Variant | self-cleavage
1 | U39A A121U | 1.58
2 | U5C A65G | 0.15
3 | U130C C145U | 1.46
4 | U12G U46C | 1.29
5 | A69G G125U | 0.3
6 | A78U A138G | 2.06
7 | U46A U52C | 1.56
8 | U9A U96A | 0.08
9 | A6G G7U | 1.33
10 | A31U U39C | 0.73
11 | G36C A94G | 0.32
12 | U109C U119C | 1.61
13 | G53U A64U | 0.45
14 | C95A U115C | 0.11
15 | U52A U119C | 1.48
16 | U14A C103U | 0.99
17 | C84U | 0.14
18 | A107G C113U | 1.39
19 | A64G U112G | 0
20 | A78U U91A | 0.85
21 | A31U U112C | 1.27
22 | C18U U115C | 1.49
23 | U96C A129U | 0.1
24 | U73G A142U | 0.61

Row | Variant | self-cleavage
25 | G58A U134C | 0.01
26 | G93U A142U | 0.04
27 | G27A U134A | 0.87
28 | U9C C61U | 0.08
29 | G4A U102G | 0.26
30 | U73A U115C | 1.9
31 | U52A U112A | 0.8
32 | U12G A65U | 0.23
33 | U46A U87C | 0.19
34 | C111A U130A | 1.16
35 | A22U G144A | 1.08
36 | C16A A124G | 0.4
37 | U47G G97A | 0.05
38 | U20A C51U | 0.77
39 | U12C U134A | 1.22
40 | A50C A107G | 1.53
41 | G40U A59C | 0.82
42 | A2G G53A | 0.74
43 | A129U C131U | 1.78
44 | A77G A92U | 1.11
45 | C128U A141G | 1.37
46 | C51U C90A | 0.01
47 | A124G C145A | 1.22
48 | A30G C145G | 0.47

Row | Variant | self-cleavage
49 | U15C A67G | 0.44
50 | A43U A129U | 1.22
51 | G55C C120U | 0.27
52 | G125A A140G | 1.32
53 | A6G U87A | 0.17
54 | U73C G75U | 0.78
55 | C98U A136G | 0.55
56 | U20C U23A | 1.81
57 | A77G G135U | 0.63
58 | U87C C99U | 0.13
59 | A141U | 1.04
60 | A22G C113U | 0.92
61 | U47G G60A | 0.02
62 | C56U A136U | 0.13
63 | G49U U132C | 1.06
64 | C113A U130C | 0.44
65 | A94G A140U | 0.33
66 | U15A A142G | 1.13
67 | U5C A50U | 0.64
68 | U46C A69C | 0
69 | U15A U143A | 1.09
70 | A124U C133A | 1.59
71 | A59G U73A | 0.08
72 | U12A A69G | 0.42

Row | Variant | self-cleavage
73 | U104C U132C | 1.63
74 | A141G C145U | 1
75 | U12C U112C | 1.26
76 | A94U U112C | 0.37
77 | U9A G35C | 1.87
78 | U47A A77G | 2.01
79 | A43G U73A | 1.53
80 | C111U A136G | 1.26
81 | U20C U62G | 0.03
82 | U13A U132G | 0.6
83 | G89A A141U | 0.02
84 | U9G U81C | 0.83
85 | U23C C101U | 1.31
86 | A69G G88C | 0.06
87 | A42G G72A | 1.11
88 | G70A U134C | 0.15
89 | A69G A121U | 0.62
90 | U14G U85C | 0.92
91 | A24U A69U | 0.09
92 | A22G G32U | 0.6
93 | C98U U134C | 0.3
94 | U29C A69U | 0.11
95 | C28U U45G | 1.09
96 | U20G C61U | 0.09

Row | Variant | self-cleavage
97 | U119C A129U | 1.82
98 | C38A A43G | 0.59
99 | U14C A78G | 1.22
100 | G36A U112C | 1.29
101 | G75C A142U | 0.66
102 | A59G C95A | 0.01
103 | A129G U143A | 1.77
104 | U14C | 1.15
105 | U102A A141G | 1.42
106 | U109C A142U | 1.49
107 | A57C A77U | 0.08
108 | U73C G105A | 2.03
109 | A50U C146U | 1.07
110 | G125U A136U | 1.8
111 | G106U U112C | 0.82
112 | C3U A117C | 0.75
113 | A57U A129G | 0.13
114 | A64U C116A | 0.37
115 | A22U A136G | 1.13
116 | U39A A50G | 1.29
117 | U1A U15C | 2.17
118 | U47A A59U | 0.81
119 | A59U A64U | 0.62
120 | A107G C118U | 1.56

Row | Variant | self-cleavage
121 | G36U U96C | 0.07
122 | U45C A78U | 1.43
123 | C71U | 0.86
124 | A22U U108A | 1.08
125 | A78G A124U | 1.45
126 | U15A C101G | 0.84
127 | C84U A129G | 0.18
128 | G11A A121U | 0.95
129 | C71U A77U | 0.7
130 | U85A U119C | 0.09
131 | U20C A50U | 1.32
132 | U52C C113A | 0.99
133 | A65G C133U | 0.04
134 | U20A A69G | 0.45
135 | A59G G97A | 0.03
136 | A77G U104G | 1.87
137 | A69G U96C | 0.16
138 | U52C G54A | 0.74
139 | U47A C71U | 0.9
140 | A22G A117G | 0.97
141 | U134A A142C | 1.23
142 | U26G U91C | 0.44
143 | U96A G137A | 0.12
144 | U9C U115A | 1.55

Row | Variant | self-cleavage
145 | A31G U47A | 0.94
146 | U15C U39A | 1.56
147 | U1A A69G | 1.2
148 | A65U G114A | 0.19
149 | U5G A50U | 0.38
150 | C38U U47G | 0.78
151 | G36C U91C | 0.51
152 | A67G A69G | 0.31
153 | G86A A136G | 0.09
154 | G35C A94G | 0.14
155 | U52C U102A | 0.87
156 | U85C U115A | 0.19
157 | A64G A121C | 0.24
158 | G72A U87A | 0.07
159 | U23C U87A | 0.06
160 | U130A A140U | 1.24
161 | U52C U91A | 0.49
162 | C90U U108A | 0.05
163 | A78U U132C | 1.92
164 | A24G U91C | 0.81
165 | U39C A136G | 1.43
166 | A65U U91C | 0.08
167 | G33U U119C | 1.19
